How the values were obtained:
[1] = molecular target: the molecule itself; assay: cryo-EM structure; single-particle cryo-EM of purified hZnT3(50-388) in LMNG/CHS micelles, 50 mM MES pH 6.0, 150 mM NaCl, 1 mM ZnSO4; 3.14 Å map
[2] = molecular target: the molecule itself; assay: cryo-EM structure; single-particle cryo-EM of purified hZnT1 in LMNG/CHS micelles, 50 mM HEPES-Na pH 7.5, 150 mM NaCl, no Zn2+ supplement, no EDTA treatment; 3.48 Å map, C1

B1: human zinc transporter 3 (ZnT3) lacking the N-terminal 49 residues, ZnT3(50-388) (domain or fragment, UniProt Q99726 50-388, looked up)
chain: MPFHHCHRDPLPPPGLTPERLHARRQLYAACAVCFVFMAGEVVGGYLAHSLAIMTDAAHLLADVGSMMGSLFSLWLSTRPATRTMTFGWHRSETLGALASVVSLWMVTGILLYLAFVRLLHSDYHIEGGAMLLTASIAVCANLLMAFVLHQAGPPHSHGSRGAEYAPLEEGPEEPLPLGNTSVRAAFVHVLGDLLQSFGVLAASILIYFKPQYKAADPISTFLFSICALGSTAPTLRDVLRILMEGTPRNVGFEPVRDTLLSVPGVRATHELHLWALTLTYHVASAHLAIDSTADPEAVLAEASSRLYSRFGFSSCTLQVEQYQPEMAQCLRCQEPPQA
notes: Zinc transporter 3 (ZnT3/SLC30A3), human, residues 50-388 (lacking the N-terminal 49 residues); No protease step is described for ZnT3, so the tags were probably still on the chain; also called hZnT3; SLC30A3; source: HEK293F cells, transfected
B1 was tested, and the “stoichiometry N” value [1] was 2.

B2: human zinc transporter 1 (ZnT1), full-length wild type (natural protein, UniProt Q9Y6M5 1-507, looked up)
chain: MGCWGRNRGRLLCMLALTFMFMVLEVVVSRVTSSLAMLSDSFHMLSDVLALVVALVAERFARRTHATQKNTFGWIRAEVMGALVNAIFLTGLCFAILLEAIERFIEPHEMQQPLVVLGVGVAGLLVNVLGLCLFHHHSGFSQDSGHGHSHGGHGHGHGLPKGPRVKSTRPGSSDINVAPGEQGPDQEETNTLVANTSNSNGLKLDPADPENPRSGDTVEVQVNGNLVREPDHMELEEDRAGQLNMRGVFLHVLGDALGSVIVVVNALVFYFSWKGCSEGDFCVNPCFPDPCKAFVEIINSTHASVYEAGPCWVLYLDPTLCVVMVCILLYTTYPLLKESALILLQTVPKQIDIRNLIKELRNVEGVEEVHELHVWQLAGSRIIATAHIKCEDPTSYMEVAKTIKDVFHNHGIHATTIQPEFASVGSKSSVVPCELACRTQCALKQCCGTLPQAPSGKDAEKTPAVSISCLELSNNLEKKPRRTKAENIPAVVIEIKNMPNKQPESSL
notes: Zinc transporter 1 (ZnT1/SLC30A1), human, full-length wild type, codon-optimised synthetic cDNA; residues 138-240 and 448-507 not modelled in the map; also called hZnT1; SLC30A1; source: HEK293F cells, transfected; not shown: FLAG, C-terminal, cleaved; mCherry, C-terminal, cleaved
B2 was tested, and the “stoichiometry N” value [2] was 2.
